# Literature values in article PMC4117600.
# Read-outs that look alike come from different tables or passages of the source.
# Assays:
# CCR4 (Homo sapiens) [1] = target: CCR4 (Homo sapiens) (UniProt P51679)
# CCR4 (Homo sapiens) [2] = target: CCR4 (Homo sapiens) (UniProt P51679); remark: listed apart in the source
# Sequence of CCR4 (Homo sapiens) (P51679 whole entry): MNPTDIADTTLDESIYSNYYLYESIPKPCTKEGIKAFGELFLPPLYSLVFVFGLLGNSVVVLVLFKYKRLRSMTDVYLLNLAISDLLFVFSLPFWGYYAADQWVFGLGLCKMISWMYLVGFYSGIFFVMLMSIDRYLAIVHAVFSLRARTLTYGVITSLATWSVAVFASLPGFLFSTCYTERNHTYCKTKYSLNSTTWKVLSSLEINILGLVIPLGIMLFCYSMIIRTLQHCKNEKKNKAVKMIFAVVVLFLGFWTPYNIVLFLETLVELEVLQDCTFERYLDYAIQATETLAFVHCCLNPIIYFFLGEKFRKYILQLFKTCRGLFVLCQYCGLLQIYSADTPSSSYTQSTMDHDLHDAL
# Sequence of CCL22 (O00626 25-93): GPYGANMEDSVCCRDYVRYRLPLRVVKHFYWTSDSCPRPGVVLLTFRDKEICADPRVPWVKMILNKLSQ
# Sequence of CCL17 (Q92583 24-94): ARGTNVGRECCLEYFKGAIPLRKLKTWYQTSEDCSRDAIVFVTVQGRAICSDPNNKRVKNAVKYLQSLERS
Kd (CCR4 (Homo sapiens) [1]) [nM],Kd (CCR4 (Homo sapiens) [2]) [nM],Substance
2.1,,CCL17 (from UniProt Q92583)
,0.18,CCL22 (from UniProt O00626)
